Measurements reported in publication PMC7440162 (Cell, 2020).

Columns and labels:
PTPRS ECD-Fc = target: T1, PTPRS ECD-Fc (human, UniProt Q13332 30-1282); experiment: SPR
T1 sequence: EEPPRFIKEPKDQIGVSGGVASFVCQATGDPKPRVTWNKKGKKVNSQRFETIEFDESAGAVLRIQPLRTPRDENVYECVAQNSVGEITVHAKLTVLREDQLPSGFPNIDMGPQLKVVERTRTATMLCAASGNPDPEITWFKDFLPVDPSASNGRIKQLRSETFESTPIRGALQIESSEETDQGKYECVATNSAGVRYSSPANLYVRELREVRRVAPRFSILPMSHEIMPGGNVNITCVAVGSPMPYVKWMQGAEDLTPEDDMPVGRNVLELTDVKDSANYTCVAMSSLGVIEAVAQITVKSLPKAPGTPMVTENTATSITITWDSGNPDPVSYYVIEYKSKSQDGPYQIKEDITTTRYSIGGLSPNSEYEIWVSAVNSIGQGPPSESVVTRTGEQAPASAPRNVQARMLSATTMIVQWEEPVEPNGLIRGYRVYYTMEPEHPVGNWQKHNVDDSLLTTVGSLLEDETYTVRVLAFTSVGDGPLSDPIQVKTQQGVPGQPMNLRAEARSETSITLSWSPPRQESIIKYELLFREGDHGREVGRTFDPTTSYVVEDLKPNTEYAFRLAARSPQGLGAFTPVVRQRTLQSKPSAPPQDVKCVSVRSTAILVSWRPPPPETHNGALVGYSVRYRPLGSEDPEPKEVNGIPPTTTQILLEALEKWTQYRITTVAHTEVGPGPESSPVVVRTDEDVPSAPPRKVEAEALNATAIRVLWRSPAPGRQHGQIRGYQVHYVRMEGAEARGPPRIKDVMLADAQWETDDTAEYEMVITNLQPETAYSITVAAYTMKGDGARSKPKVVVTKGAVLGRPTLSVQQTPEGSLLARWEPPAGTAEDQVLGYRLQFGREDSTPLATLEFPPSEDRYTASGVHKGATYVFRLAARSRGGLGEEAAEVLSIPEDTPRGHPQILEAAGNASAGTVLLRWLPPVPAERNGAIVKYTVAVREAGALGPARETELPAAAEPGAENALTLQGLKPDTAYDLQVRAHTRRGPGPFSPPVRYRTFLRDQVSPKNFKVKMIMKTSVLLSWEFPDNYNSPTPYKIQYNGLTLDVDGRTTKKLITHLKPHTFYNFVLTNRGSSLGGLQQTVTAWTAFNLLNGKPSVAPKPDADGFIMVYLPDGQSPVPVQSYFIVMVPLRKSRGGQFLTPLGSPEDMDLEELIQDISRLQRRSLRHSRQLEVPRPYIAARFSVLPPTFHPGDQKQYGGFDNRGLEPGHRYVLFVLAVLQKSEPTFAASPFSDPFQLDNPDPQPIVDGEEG

PTPRF ECD-Fc = target: T2, PTPRF ECD-Fc (human, UniProt P10586 30-1263); experiment: SPR
T2 sequence: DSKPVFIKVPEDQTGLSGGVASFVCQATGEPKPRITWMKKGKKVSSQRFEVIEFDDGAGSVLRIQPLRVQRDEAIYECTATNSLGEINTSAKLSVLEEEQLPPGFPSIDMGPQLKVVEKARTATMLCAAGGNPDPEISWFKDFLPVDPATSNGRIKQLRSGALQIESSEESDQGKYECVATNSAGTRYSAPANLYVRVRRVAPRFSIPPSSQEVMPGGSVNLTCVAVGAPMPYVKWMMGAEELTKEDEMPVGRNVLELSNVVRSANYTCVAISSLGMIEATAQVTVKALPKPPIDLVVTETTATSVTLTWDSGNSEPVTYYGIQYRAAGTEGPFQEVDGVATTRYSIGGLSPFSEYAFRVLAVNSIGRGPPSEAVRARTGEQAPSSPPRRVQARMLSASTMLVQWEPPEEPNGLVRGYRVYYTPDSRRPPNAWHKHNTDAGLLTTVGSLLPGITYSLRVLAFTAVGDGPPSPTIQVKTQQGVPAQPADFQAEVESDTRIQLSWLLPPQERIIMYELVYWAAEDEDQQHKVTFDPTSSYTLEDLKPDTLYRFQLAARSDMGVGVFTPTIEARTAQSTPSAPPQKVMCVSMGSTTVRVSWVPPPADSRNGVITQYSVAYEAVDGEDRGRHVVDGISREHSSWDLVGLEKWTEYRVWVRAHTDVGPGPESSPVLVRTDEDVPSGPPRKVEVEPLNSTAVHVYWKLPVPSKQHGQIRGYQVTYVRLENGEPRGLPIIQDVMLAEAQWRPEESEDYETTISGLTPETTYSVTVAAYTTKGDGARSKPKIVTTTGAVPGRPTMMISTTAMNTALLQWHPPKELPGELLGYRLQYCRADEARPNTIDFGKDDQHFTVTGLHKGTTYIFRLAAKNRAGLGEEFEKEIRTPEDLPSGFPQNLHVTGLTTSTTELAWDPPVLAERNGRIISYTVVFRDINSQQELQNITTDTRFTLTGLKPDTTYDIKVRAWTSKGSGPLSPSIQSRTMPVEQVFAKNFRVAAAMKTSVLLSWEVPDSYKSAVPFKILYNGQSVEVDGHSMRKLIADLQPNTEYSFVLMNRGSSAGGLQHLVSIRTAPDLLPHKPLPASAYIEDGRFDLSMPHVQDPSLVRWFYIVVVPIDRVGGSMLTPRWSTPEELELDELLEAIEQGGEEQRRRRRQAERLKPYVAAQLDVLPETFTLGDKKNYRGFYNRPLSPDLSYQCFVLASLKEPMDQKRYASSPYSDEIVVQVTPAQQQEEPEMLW

PTPRD ECD-Fc = target: T3, PTPRD ECD-Fc (human, UniProt P23468 21-1265); experiment: ELISA
T3 sequence: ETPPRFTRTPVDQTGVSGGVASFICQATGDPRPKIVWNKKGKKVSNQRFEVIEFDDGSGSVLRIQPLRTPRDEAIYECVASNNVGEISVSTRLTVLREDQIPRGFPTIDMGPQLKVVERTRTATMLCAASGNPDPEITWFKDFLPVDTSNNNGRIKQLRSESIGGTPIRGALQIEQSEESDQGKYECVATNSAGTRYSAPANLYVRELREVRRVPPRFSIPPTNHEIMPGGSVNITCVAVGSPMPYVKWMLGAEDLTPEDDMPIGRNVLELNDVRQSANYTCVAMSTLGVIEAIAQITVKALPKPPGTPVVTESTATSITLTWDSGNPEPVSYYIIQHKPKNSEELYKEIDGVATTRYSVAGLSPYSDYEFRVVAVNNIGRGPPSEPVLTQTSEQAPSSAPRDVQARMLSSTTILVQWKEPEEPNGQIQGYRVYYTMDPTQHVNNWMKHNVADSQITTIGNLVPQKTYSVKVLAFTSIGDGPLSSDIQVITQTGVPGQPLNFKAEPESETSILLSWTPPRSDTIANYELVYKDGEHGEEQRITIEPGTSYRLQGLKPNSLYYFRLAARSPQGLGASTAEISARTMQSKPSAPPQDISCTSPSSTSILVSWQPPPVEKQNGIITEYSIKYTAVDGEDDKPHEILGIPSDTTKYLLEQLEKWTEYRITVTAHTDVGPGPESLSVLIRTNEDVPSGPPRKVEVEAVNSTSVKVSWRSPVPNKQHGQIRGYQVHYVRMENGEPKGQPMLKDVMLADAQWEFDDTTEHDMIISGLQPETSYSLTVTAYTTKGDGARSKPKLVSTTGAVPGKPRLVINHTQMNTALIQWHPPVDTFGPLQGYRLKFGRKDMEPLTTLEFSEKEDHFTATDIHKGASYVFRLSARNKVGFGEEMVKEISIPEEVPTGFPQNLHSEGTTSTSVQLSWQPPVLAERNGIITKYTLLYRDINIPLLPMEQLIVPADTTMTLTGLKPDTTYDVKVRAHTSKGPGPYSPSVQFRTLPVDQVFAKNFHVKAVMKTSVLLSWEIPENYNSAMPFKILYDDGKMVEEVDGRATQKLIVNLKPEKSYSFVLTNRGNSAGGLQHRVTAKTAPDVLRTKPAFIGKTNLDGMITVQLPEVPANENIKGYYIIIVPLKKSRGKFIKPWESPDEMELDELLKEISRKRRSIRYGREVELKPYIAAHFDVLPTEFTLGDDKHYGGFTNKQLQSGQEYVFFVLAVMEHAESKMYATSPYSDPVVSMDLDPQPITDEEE

binding result (PTPRS ECD-Fc): binds
binding result (PTPRF ECD-Fc): binds
binding result (PTPRD ECD-Fc): binds
B1: SALM2 ECD-Fc (Fc fusion)
chain: QPCPGRCICQNVAPTLTMLCAKTGLLFVPPAIDRRVVELRLTDNFIAAVRRRDFANMTSLVHLTLSRNTIGQVAAGAFADLRALRALHLDSNRLAEVRGDQLRGLGNLRHLILGNNQIRRVESAAFDAFLSTVEDLDLSYNNLEALPWEAVGQMVNLNTLTLDHNLIDHIAEGTFVQLHKLVRLDMTSNRLHKLPPDGLFLRSQGTGPKPPTPLTVSFGGNPLHCNCELLWLRRLTREDDLETCATPEHLTDRYFWSIPEEEFLCEPPLITRQAGGRALVVEGQAVSLRCRAVGDPEPVVHWVAPDGRLLGNSSRTRVRGDGTLDVTITTLRDSGTFTCIASNAAGEATAPVEVCVVPLPLMAPPPAAPPPLTEPGSSDIATPGRPGANDSAAERRLVAAELTSNSVLIRWPAQRPVPGIRMYQVQYNSSVDDSLVYRMIPSTSQTFLVNDLAAGRAYDLCVLAVYDDGATALPATRVVGCVQFTTAGDPAPCRPLRAHFLGGTM
modifications: biotin on the AviTag (as SPR ligand)
